From publication PMC4200421, “A distinct tethering step is vital for vacuole membrane fusion” (eLife, 2014)
One block for each binder: values may come before it.

Biological target: T1, Vam3p (vacuolar Qa-SNARE), on 3Q-SNARE proteoliposomes (S. cerevisiae, UniProt Q12241 1-283)
T1 construct: Vam3p, vacuolar Qa-SNARE of Saccharomyces cerevisiae; Bait of the co-immunoprecipitation (anti-Vam3p antibody); In every experiment Vam3p stood on the same proteoliposomes as the Qb-SNARE Vti1p and the Qc-SNARE Vam7p (3Q-RPLs); Constructs are in cited work; also called 3Q-RPLs; 3Q-SNAREs
T1 sequence (looked up): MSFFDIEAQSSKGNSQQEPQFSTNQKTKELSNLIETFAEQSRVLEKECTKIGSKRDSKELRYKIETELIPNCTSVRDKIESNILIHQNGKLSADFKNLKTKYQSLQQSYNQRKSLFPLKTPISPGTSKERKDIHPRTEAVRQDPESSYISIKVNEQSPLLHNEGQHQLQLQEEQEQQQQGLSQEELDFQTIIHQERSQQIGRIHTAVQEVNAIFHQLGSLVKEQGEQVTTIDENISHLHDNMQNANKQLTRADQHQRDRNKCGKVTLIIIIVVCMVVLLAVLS
Test: co-IP; 1R-RPLs, or soluble Nyv1p at 100 nM, with 3Q-RPLs (Vam3p, Vti1p, Vam7p); 40 µl reaction 40 min at 27°C with HOPS (100 nM) or its buffer; diluted 10-fold in RIPA buffer with affinity-purified anti-Vam3p antibody (50 µg/ml) and 10 µM GST-Nyv1p; protein A magnetic beads, 2 hr room temperature; immunoblot with anti-Nyv1p
Conditions: both partners purified

binding result: binds
B1: Nyv1p (vacuolar R-SNARE), membrane-anchored, on R-SNARE proteoliposomes (natural protein, S. cerevisiae, UniProt Q12255 1-253, looked up)
chain: MKRFNVSYVEVIKNGETISSCFQPFQKNENYGTITSANEQITPVIFHNLIMDMVLPKVVPIKGNKVTKMSMNLIDGFDCFYSTDDHDPKTVYVCFTLVDMPKILPIRILSGLQEYESNATNELLSSHVGQILDSFHEELVEYRNQTLNSSGNGQSSNGNGQNTISDIGDATEDQIKDVIQIMNDNIDKFLERQERVSLLVDKTSQLNSSSNKFRRKAVNIKEIMWWQKVKNITLLTFTIILFVSAAFMFFYLW
notes: Nyv1p, vacuolar R-SNARE of Saccharomyces cerevisiae, membrane-anchored form; Schwartz and Merz, 2009; Zucchi and Zick, 2011 for the SNARE constructs; Exchanged into octylglucoside buffer before reconstitution; also called wild-type Nyv1p; 1R; source: pure recombinant protein, purified as described (cited work), reconstituted into proteoliposomes by detergent dialysis

binding result: binds
B2: Soluble Nyv1p (sR), Nyv1(Δtm), Nyv1p(1-231) (domain or fragment, S. cerevisiae, UniProt Q12255 1-231, looked up)
chain: MKRFNVSYVEVIKNGETISSCFQPFQKNENYGTITSANEQITPVIFHNLIMDMVLPKVVPIKGNKVTKMSMNLIDGFDCFYSTDDHDPKTVYVCFTLVDMPKILPIRILSGLQEYESNATNELLSSHVGQILDSFHEELVEYRNQTLNSSGNGQSSNGNGQNTISDIGDATEDQIKDVIQIMNDNIDKFLERQERVSLLVDKTSQLNSSSNKFRRKAVNIKEIMWWQKVKN
notes: Nyv1p of Saccharomyces cerevisiae without its transmembrane anchor (Δtm); the methods name only Nyv1(Δtm); also called sNyv1p; recombinant soluble domain of Nyv1p; source: purified as GST-TEVsite-Nyv1(Δtm) as described (Thorngren et al., 2004), cleaved with TEV protease prior to use; not shown: GST, N-terminal, cleaved
